Test results: publication PMC3208561, “Phylogenetic and Complementation Analysis of a Single-Stranded DNA Binding Protein Family from Lactococcal Phages Indicates a Non-Bacterial Origin”

Molecular target: T1, Orf14bIL67 (phage SSB) (Lactococcus phage bIL67, UniProt Q38257 1-123)
T1 sequence: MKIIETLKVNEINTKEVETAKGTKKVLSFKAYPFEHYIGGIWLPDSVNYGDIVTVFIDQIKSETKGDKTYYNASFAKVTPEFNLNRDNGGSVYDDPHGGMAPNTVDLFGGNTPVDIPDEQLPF
Test: EMSA; 30°C; protein up to 100 nM, 0.5 nM DNA; 20 mM Tris-HCl pH 7.5, 25 mM KCl, 1 mM EDTA, 1 mM DTT, 2.5% glycerol, 0.3 mg/ml BSA; 10 min at 30 or 38°C; 5% native PAGE in 0.25x TBE at 4°C
Details: protein: recombinant; tags: IMPACT-CN (intein) purification; label: 5'-32P

B1: 80-mer oligonucleotide (ssDNA)
DNA: TTTGTCGGTACTTTATATTCTCTTATTACTGGCTCGAAAATGCCTCTGCCTAAATTACATGTTGGCGTTGTTAAATATGGGGG
  binding result: binds
